T1: Recombinant vinculin protein (UniProt P18206-2 1-1066)
T1 construct: vinculin, recombinant; The BLI methods describe EZH2 and p38α but say nothing of the vinculin protein
T1 sequence (looked up): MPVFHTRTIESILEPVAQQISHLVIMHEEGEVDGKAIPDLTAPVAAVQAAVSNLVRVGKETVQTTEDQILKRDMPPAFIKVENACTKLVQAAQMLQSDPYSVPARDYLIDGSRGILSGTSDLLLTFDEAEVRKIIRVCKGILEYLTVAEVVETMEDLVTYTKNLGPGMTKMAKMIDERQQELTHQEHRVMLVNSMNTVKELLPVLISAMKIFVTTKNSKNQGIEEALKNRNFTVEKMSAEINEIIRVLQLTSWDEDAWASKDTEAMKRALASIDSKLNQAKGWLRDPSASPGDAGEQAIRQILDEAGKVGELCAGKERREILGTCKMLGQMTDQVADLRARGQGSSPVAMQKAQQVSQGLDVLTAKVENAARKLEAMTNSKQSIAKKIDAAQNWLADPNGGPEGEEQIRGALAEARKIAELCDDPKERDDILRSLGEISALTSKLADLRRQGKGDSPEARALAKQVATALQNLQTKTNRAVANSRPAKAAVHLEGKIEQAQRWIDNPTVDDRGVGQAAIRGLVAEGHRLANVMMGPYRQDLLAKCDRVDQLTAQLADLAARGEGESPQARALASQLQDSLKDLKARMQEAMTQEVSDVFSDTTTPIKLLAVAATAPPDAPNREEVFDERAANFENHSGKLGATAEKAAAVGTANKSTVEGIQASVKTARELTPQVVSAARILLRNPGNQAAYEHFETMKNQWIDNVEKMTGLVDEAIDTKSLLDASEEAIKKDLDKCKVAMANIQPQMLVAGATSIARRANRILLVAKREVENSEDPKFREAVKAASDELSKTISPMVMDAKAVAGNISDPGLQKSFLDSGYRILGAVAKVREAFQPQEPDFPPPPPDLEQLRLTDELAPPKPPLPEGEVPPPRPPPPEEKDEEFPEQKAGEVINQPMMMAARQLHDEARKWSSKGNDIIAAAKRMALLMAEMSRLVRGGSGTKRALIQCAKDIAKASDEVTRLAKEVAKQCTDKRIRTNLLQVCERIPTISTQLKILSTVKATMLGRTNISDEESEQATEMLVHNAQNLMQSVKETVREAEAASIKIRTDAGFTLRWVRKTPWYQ

B1: vinculin (endogenous) (natural protein, human (endogenous in MDA-MB-231), UniProt P18206-2 1-1066, looked up)
chain: MPVFHTRTIESILEPVAQQISHLVIMHEEGEVDGKAIPDLTAPVAAVQAAVSNLVRVGKETVQTTEDQILKRDMPPAFIKVENACTKLVQAAQMLQSDPYSVPARDYLIDGSRGILSGTSDLLLTFDEAEVRKIIRVCKGILEYLTVAEVVETMEDLVTYTKNLGPGMTKMAKMIDERQQELTHQEHRVMLVNSMNTVKELLPVLISAMKIFVTTKNSKNQGIEEALKNRNFTVEKMSAEINEIIRVLQLTSWDEDAWASKDTEAMKRALASIDSKLNQAKGWLRDPSASPGDAGEQAIRQILDEAGKVGELCAGKERREILGTCKMLGQMTDQVADLRARGQGSSPVAMQKAQQVSQGLDVLTAKVENAARKLEAMTNSKQSIAKKIDAAQNWLADPNGGPEGEEQIRGALAEARKIAELCDDPKERDDILRSLGEISALTSKLADLRRQGKGDSPEARALAKQVATALQNLQTKTNRAVANSRPAKAAVHLEGKIEQAQRWIDNPTVDDRGVGQAAIRGLVAEGHRLANVMMGPYRQDLLAKCDRVDQLTAQLADLAARGEGESPQARALASQLQDSLKDLKARMQEAMTQEVSDVFSDTTTPIKLLAVAATAPPDAPNREEVFDERAANFENHSGKLGATAEKAAAVGTANKSTVEGIQASVKTARELTPQVVSAARILLRNPGNQAAYEHFETMKNQWIDNVEKMTGLVDEAIDTKSLLDASEEAIKKDLDKCKVAMANIQPQMLVAGATSIARRANRILLVAKREVENSEDPKFREAVKAASDELSKTISPMVMDAKAVAGNISDPGLQKSFLDSGYRILGAVAKVREAFQPQEPDFPPPPPDLEQLRLTDELAPPKPPLPEGEVPPPRPPPPEEKDEEFPEQKAGEVINQPMMMAARQLHDEARKWSSKGNDIIAAAKRMALLMAEMSRLVRGGSGTKRALIQCAKDIAKASDEVTRLAKEVAKQCTDKRIRTNLLQVCERIPTISTQLKILSTVKATMLGRTNISDEESEQATEMLVHNAQNLMQSVKETVREAEAASIKIRTDAGFTLRWVRKTPWYQ
notes: vinculin, endogenous; source: endogenous, MDA-MB-231 (whole cell lysate; fixed cells for PLA)
B2: Recombinant EZH2 (GST-EZH2 aa 2-end) (natural protein)
chain: not shown
modifications: biotin (Sulpho-NHS-LC-biotin, protein and biotin mixed 1:1 molar ratio)
notes: EZH2 (Enhancer of zeste homolog 2), aa 2-end; GST-EZH2 MW = 114 kDa; The vendor is printed only as 'Bioscience'; also called Enhancer of zeste homolog 2; immobilized EZH2; source: bought: Bioscience (recombinant)

Key:
[1] = target: T2, pEZH2(T367) (endogenous EZH2 phosphorylated at T367) (human (endogenous in MDA-MB-231), UniProt Q15910 1-746, phosphothreonine at 367); assay: co-IP; endogenous proteins from whole cell extracts of MDA-MB-231 cells; magnetic Dynabeads with antibody (EZH2, pEZH2 or vinculin); with or without doxycycline to induce MKK6EE and p38 activation; conditions: partners not purified
T2 construct: EZH2, endogenous, phosphorylated at T367 by p38; also called phosphorylated EZH2 (T367); source: endogenous, MDA-MB-231 (whole cell extracts; fixed cells for PLA)
T2 sequence (Q15910 whole entry): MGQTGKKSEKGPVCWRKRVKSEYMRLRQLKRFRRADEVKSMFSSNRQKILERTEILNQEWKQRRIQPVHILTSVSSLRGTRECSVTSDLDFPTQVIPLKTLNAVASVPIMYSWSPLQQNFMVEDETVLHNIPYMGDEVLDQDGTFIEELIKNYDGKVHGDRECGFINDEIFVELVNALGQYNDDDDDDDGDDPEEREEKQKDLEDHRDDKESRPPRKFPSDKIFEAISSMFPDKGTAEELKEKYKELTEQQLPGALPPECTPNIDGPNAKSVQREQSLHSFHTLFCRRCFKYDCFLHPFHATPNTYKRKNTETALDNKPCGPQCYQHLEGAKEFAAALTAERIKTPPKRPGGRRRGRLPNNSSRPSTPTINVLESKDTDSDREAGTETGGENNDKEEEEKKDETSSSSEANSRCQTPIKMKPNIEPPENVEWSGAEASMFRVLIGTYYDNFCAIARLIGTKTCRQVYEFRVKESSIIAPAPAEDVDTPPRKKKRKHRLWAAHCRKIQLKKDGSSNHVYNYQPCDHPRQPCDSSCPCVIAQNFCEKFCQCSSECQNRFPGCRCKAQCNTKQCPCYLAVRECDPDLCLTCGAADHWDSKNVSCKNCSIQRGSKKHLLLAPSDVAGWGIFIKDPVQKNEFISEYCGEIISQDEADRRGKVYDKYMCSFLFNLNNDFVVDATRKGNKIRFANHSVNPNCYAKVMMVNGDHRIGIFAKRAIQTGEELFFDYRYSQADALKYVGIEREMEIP

[2] = target: T1, Recombinant vinculin protein; assay: BLI; same experiment as a1 (EZH2 immobilised, 30 °C, HBS-P); steady state analysis of response against concentration; conditions: both partners purified
[3] = target: T1, Recombinant vinculin protein; assay: BLI; biotinylated GST-EZH2 immobilised on Super Streptavidin (SSA) biosensors; analyte in a concentration series; OctetRED96; 30 °C; HBS-P (10 mM HEPES pH 7.4, 150 mM NaCl, 0.005% tween-20); double referencing; kinetic fit, 1:1 binding model; conditions: both partners purified

Row | Binder | fold increase of binding on p38 activation against uninduced controls [1] | Kd [2] | Kd [3] | koff [3] | kon [3]
1 | B1 | ~10 fold |  |  |  | 
2 | B2 |  | 42 nM | 15 nM | 0.00385 s⁻¹ | 294000 M⁻¹ s⁻¹
